# Test results as given in article PMC7756140.
# Key:
# Assay in all cases: MST
# CCR5^QTY – SZ190b (SF9) = molecular target: CCR5^QTY – SZ190b (SF9)
# CCR5^QTY (E. coli) = molecular target: CCR5^QTY (E. coli)
# [1] = molecular target: CCR5^QTY – SZ218a (E. coli)
# [2] = molecular target: CCR5^QTY – SZ190b (E. coli)
# CCR5^QTY (SF9) = molecular target: CCR5^QTY (SF9)
# CCR5^QTY – SZ218a (SF9) = molecular target: CCR5^QTY – SZ218a (SF9)
# [3] = molecular target: CXCR4^QTY – SZ158a (E. coli)
# CXCR4^QTY (E. coli) = molecular target: CXCR4^QTY (E. coli)
Substance,Kd (CCR5^QTY – SZ190b (SF9)) [µM],Kd (CCR5^QTY (E. coli)) [µM],Kd [1] [µM],Kd [2] [µM],Kd (CCR5^QTY (SF9)) [µM],Kd (CCR5^QTY – SZ218a (SF9)) [µM],Kd [3] [µM],Kd (CXCR4^QTY (E. coli)) [µM]
CCL5 (from UniProt P13501 24-91) (ligand),0.0378,0.0068,0.0877,0.0558,0.0411,0.0517,,
HIV-1 coat glycoprotein gp41-120,,,,,,,0.2,0.007
